Reference: the RNAGym collection of RNA variant scans (doi:10.7554/elife.80360)

B1: Hammerhead Ribozyme (parent)
chain: ACCGGAUGUGCUUUCCGGUCUGAUGAGUCCGUGAGGACGAAACAG

Variants of: B1
Assay: self-cleavage, relative activity (ratio to wild type); higher = more cleavage; co-transcriptional

**Q.** For ACCGGAUGCGCUUUCCGGUCUCAUGAGUCCGUGAGGACGAAACAG [U9C G22C], which self-cleavage is on record?
**A.** 0.266

**Q.** Which self-cleavage does the source give for ACCGGAUGUGCUUUCCGGUCUUAUGAGUCCGUGAGAACGAAACAG [G22U G36A] here?
**A.** 0.316

**Q.** Which self-cleavage does the source give for ACCGGAUGUGCUUUCCGGACUGAUGAGUCCGUGAGGACGGAACAG [U19A A40G] here?
**A.** 0.307

**Q.** Which self-cleavage does the source give for ACCGGAUGUGCUUUCCGGUCUGAUGAUUCCGUGAGGACGAAAUAG [G27U C43U] here?
**A.** 0.366

**Q.** Which self-cleavage does the source give for ACCAGAUGUGCUUUCCGGUCUGAUGAGUCCGCGAGGACGAAACAG [G4A U32C] here?
**A.** 0.516

**Q.** Which self-cleavage does the source give for ACCGCAUGUGCUUUCCGGUCUGAUGAGUCCGUGAGGACGAAAGAG [G5C C43G] here?
**A.** 0.33

**Q.** With ACCGGAUGUGCUUUCCGGUCUGUUGAGUCCGUGGGGACGAAACAG [A23U A34G] as the variant, how does the self-cleavage read?
**A.** 0.358

**Q.** With ACCGAAUGUGCUUUCCGGUCUGAUGAGUCCCUGAGGACGAAACAG [G5A G31C] as the variant, how does the self-cleavage read?
**A.** 1.32

**Q.** For ACCGGAUGUGCUUUCCGGUUUGAUGAGUCCGUGAUGACGAAACAG [C20U G35U], which self-cleavage is on record?
**A.** 0.347

**Q.** With ACCGGAUGUGCUUUCCGGUCUGAUGAGUCUGUGAGGACGAAACAC [C30U G45C] as the variant, how does the self-cleavage read?
**A.** 1.05

**Q.** With ACCGGAUGUGAUUUCCGGUCUGAUGAGUCCGUGAGGCCGAAACAG [C11A A37C] as the variant, how does the self-cleavage read?
**A.** 1.12

**Q.** For ACCGGGCGUGCUUUCCGGUCUGAUGAGUCCGUGAGGACGAAACAG [A6G U7C], which self-cleavage is on record?
**A.** 1.29

**Q.** For ACCGGAUGUGCUUUCCGGUCUGAUGAGUCCGUGGGGAGGAAACAG [A34G C38G], which self-cleavage is on record?
**A.** 0.598

**Q.** Which self-cleavage does the source give for ACCGGAUGUGCUUUCCACUCUGAUGAGUCCGUGAGGACGAAACAG [G17A G18C] here?
**A.** 0.341

**Q.** Which self-cleavage does the source give for ACCGGAUGCGCUUUCCGGUCCGAUGAGUCCGUGAGGACGAAACAG [U9C U21C] here?
**A.** 0.718

**Q.** For ACCGGAUGUGAUUUCCGGUAUGAUGAGUCCGUGAGGACGAAACAG [C11A C20A], which self-cleavage is on record?
**A.** 0.452

**Q.** With ACCGGAUGUGCUAUCCGAUCUGAUGAGUCCGUGAGGACGAAACAG [U13A G18A] as the variant, how does the self-cleavage read?
**A.** 1.17

**Q.** With ACCGGAUGUGCUUUCCGGUCUGAUGAGUCCGGGAGGACGAUACAG [U32G A41U] as the variant, how does the self-cleavage read?
**A.** 0.318

**Q.** With ACCCGAUGUGCUUUCCGGUCUGAUGCGUCCGUGAGGACGAAACAG [G4C A26C] as the variant, how does the self-cleavage read?
**A.** 0.289

**Q.** Which self-cleavage does the source give for ACCGGAGGUGCUUUCCGGUCUGAUGAGUCCGUGAGGACGAAGCAG [U7G A42G] here?
**A.** 0.33

**Q.** Which self-cleavage does the source give for ACCGGAUGUGCUUUACGGUCGGAUGAGUCCGUGAGGACGAAACAG [C15A U21G] here?
**A.** 0.404

**Q.** With ACCGGAUGUGUUUUCCGGUCUGAUGCGUCCGUGAGGACGAAACAG [C11U A26C] as the variant, how does the self-cleavage read?
**A.** 0.433

**Q.** Which self-cleavage does the source give for ACCGGAUGUGCUUACCGGUCUGAUGAGUCCGUGACGACGAAACAG [U14A G35C] here?
**A.** 0.654

**Q.** With ACCGGAAGUGCUGUCCGGUCUGAUGAGUCCGUGAGGACGAAACAG [U7A U13G] as the variant, how does the self-cleavage read?
**A.** 1.29

**Q.** Which self-cleavage does the source give for ACCGGAUGUGCUUCCCGGUCUGAUGAGUCCGUGAAGACGAAACAG [U14C G35A] here?
**A.** 0.565

**Q.** For ACCGGAUGUGCUCUCCUGUCUGAUGAGUCCGUGAGGACGAAACAG [U13C G17U], which self-cleavage is on record?
**A.** 0.884

**Q.** With ACCGGAUGUGCUUGCCGGUCUGAUGAGUCCGUGACGACGAAACAG [U14G G35C] as the variant, how does the self-cleavage read?
**A.** 0.509

**Q.** Which self-cleavage does the source give for AACGGAUGUGCUUUCCGGUCUGAUGAGUCCGUGCGGACGAAACAG [C2A A34C] here?
**A.** 0.387

**Q.** For ACCGGACGUGCUUUCCGGUCUGGUGAGUCCGUGAGGACGAAACAG [U7C A23G], which self-cleavage is on record?
**A.** 0.454

**Q.** Which self-cleavage does the source give for ACCGGAUGUGCUUUCCCGUCUGAUGAGUCCGUGAGAACGAAACAG [G17C G36A] here?
**A.** 0.361

**Q.** With ACCGGAUGUGCAUUCCGGUCUGAUGAGUCCGUGAGGUCGAAACAG [U12A A37U] as the variant, how does the self-cleavage read?
**A.** 0.827

**Q.** Which self-cleavage does the source give for ACCCGAUGUGCUUUCCGGUCUGAUGAGUCCGUGAGGACGAAACCG [G4C A44C] here?
**A.** 0.422

**Q.** For ACCGGAUGUGCUUUCCGGUCUGAUGAGUCCGUGAGGACGAGUCAG [A41G A42U], which self-cleavage is on record?
**A.** 0.335

**Q.** Which self-cleavage does the source give for ACCGGAUGUGCUUUCCGGUCUGAUAAGUCCGUGAGGUCGAAACAG [G25A A37U] here?
**A.** 0.272

**Q.** For ACCGCAUGUGCUUUCCGGUCUGAUGAGUCCGUGAGGACGAAACAU [G5C G45U], which self-cleavage is on record?
**A.** 0.382

**Q.** For ACCCGAUGUGCUUUCCCGUCUGAUGAGUCCGUGAGGACGAAACAG [G4C G17C], which self-cleavage is on record?
**A.** 0.291

**Q.** For ACCGGAUGUGCUUUCCGGUCUAAUGAGUCCGUGAGGACGGAACAG [G22A A40G], which self-cleavage is on record?
**A.** 0.297

**Q.** With ACCGGAUGUGCUUUCCAGUCUGAUCAGUCCGUGAGGACGAAACAG [G17A G25C] as the variant, how does the self-cleavage read?
**A.** 0.321

**Q.** With ACCGGAUGUGCUUUCCGGUCUGAUGCGUCCGUGAGGAAGAAACAG [A26C C38A] as the variant, how does the self-cleavage read?
**A.** 0.657

**Q.** For ACCGGAUGUGCUUUCCGGUCUCAUGAGUCCGUGAGGACGAAACCG [G22C A44C], which self-cleavage is on record?
**A.** 0.369

**Q.** For ACCGGAUGUUCUUUCCGGUCUGAUGAGUCCGUGAGGACGAAAAAG [G10U C43A], which self-cleavage is on record?
**A.** 0.354

**Q.** With ACCGGAUGUGCUUUCCGGUCUGAUGAGUCCGAGAGGACGUAACAG [U32A A40U] as the variant, how does the self-cleavage read?
**A.** 0.405

**Q.** With ACUGGAUGUGCUUUCCGGUCUGAUGAGUCCCUGAGGACGAAACAG [C3U G31C] as the variant, how does the self-cleavage read?
**A.** 0.974

**Q.** For ACCGGAUGUGCUAUCCGGUCUGAUGAGUCCGUGAGGACGAAACAG [U13A], which self-cleavage is on record?
**A.** 1.31

**Q.** For ACCGGAUGUGCUUUCCGGUCUGAUGAGGCCGUGAGGACGAAAUAG [U28G C43U], which self-cleavage is on record?
**A.** 0.3

**Q.** With ACCGGAUGUGCUUUCCGGUCUGAAGUGUCCGUGAGGACGAAACAG [U24A A26U] as the variant, how does the self-cleavage read?
**A.** 0.756

**Q.** With ACCGGAUGUGCUUUCCGGUGUGAUGAGUCCGUGAGGACGAAACAA [C20G G45A] as the variant, how does the self-cleavage read?
**A.** 0.356

**Q.** With ACCGGAUGUGCUUUCCGGUCUAAUGAGUGCGUGAGGACGAAACAG [G22A C29G] as the variant, how does the self-cleavage read?
**A.** 0.332

**Q.** For ACCGUAUGUGCUUUCCGGUCUGAUGAGUCCGUGAGGAGGAAACAG [G5U C38G], which self-cleavage is on record?
**A.** 0.349

**Q.** For ACCGUAUGUGCAUUCCGGUCUGAUGAGUCCGUGAGGACGAAACAG [G5U U12A], which self-cleavage is on record?
**A.** 1.1

**Q.** With ACCGGAUGUGCUUUCCGGUCUGAUGAGUCCCUGGGGACGAAACAG [G31C A34G] as the variant, how does the self-cleavage read?
**A.** 0.994

**Q.** With ACCCGGUGUGCUUUCCGGUCUGAUGAGUCCGUGAGGACGAAACAG [G4C A6G] as the variant, how does the self-cleavage read?
**A.** 0.358

**Q.** Which self-cleavage does the source give for AACGGAUGUGCUUUCCGGUCUGAUGACUCCGUGAGGACGAAACAG [C2A G27C] here?
**A.** 0.339

**Q.** For ACCGGGUGUGCUUUCCGGUCUGAUGAGUCCGUGAGGACUAAACAG [A6G G39U], which self-cleavage is on record?
**A.** 0.248

**Q.** Which self-cleavage does the source give for ACCGGAUGUGCUUUCCGGUCUGAUGAGUCCUAGAGGACGAAACAG [G31U U32A] here?
**A.** 0.802

**Q.** With ACCGGAUGUGCUUUCCGGUCUGACGAGACCGUGAGGACGAAACAG [U24C U28A] as the variant, how does the self-cleavage read?
**A.** 0.614

**Q.** Which self-cleavage does the source give for ACCGGAUGUUCUUUCCGGUCUGAUGAGUCCGUUAGGACGAAACAG [G10U G33U] here?
**A.** 1.05
